For data set [1], the target named is MEF2A (2-95), MADS-box/MEF2 domain (Homo sapiens, UniProt Q02078 2-95). Nature of the data set: X-ray crystallography.
Data set [2] concerns the molecule itself. Nature of the data set: multiangle light scattering.

B1: MEF2 site 14mer (crystal) (dsDNA)
DNA 1: AACTATTTATAAGA
DNA 2: TTCTTATAAATAGT
On to B1, for which the binding result in data set [1] was “binds”.

B2: MADS-box/MEF2 domain of human MEF2A (residues 2-95) (domain or fragment, UniProt Q02078 2-95, looked up)
chain: GRKKIQITRIMDERNRQVTFTKRKFGLMKKAYELSVLCDCEIALIIFNSSNKLFQYASTDMDKVLLKYTEYNEPHESRTNSDIVEALNKKEHRG
Broadly, the stoichiometry N is a count of units in the complex or per binding partner. Consider B2, for which, in data set [2], the “stoichiometry N” value worked out at 2.

The values are drawn from article PMC2952653 (Journal of molecular biology, 2010).
